The target in assay [1] is α4YFP nAChR subunit (mouse) (UniProt O70174). Description: pixel-by-pixel sensitized emission FRET (NFRET), whole-cell ROI, N2a cells.
For assay [2] the target is unchanged. As to the kind of experiment: pixel-by-pixel sensitized emission FRET, Gaussian fit of the NFRET distribution, N2a cells.

Chain of β2CFP nAChR subunit (Q9ERK7 26-501): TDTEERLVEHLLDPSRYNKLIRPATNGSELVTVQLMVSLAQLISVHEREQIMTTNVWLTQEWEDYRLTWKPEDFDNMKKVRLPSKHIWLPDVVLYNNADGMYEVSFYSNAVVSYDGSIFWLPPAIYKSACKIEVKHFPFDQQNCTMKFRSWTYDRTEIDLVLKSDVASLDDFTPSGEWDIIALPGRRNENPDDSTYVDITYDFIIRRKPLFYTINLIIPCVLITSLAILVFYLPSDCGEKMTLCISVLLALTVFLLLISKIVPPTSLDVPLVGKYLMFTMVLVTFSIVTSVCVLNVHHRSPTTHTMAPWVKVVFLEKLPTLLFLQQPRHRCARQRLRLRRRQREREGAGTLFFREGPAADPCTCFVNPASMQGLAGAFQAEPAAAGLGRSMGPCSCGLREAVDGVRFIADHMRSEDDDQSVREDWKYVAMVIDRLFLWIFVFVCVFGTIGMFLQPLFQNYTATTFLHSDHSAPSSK
Chain of α4YFP nAChR subunit (mouse) (O70174 31-629): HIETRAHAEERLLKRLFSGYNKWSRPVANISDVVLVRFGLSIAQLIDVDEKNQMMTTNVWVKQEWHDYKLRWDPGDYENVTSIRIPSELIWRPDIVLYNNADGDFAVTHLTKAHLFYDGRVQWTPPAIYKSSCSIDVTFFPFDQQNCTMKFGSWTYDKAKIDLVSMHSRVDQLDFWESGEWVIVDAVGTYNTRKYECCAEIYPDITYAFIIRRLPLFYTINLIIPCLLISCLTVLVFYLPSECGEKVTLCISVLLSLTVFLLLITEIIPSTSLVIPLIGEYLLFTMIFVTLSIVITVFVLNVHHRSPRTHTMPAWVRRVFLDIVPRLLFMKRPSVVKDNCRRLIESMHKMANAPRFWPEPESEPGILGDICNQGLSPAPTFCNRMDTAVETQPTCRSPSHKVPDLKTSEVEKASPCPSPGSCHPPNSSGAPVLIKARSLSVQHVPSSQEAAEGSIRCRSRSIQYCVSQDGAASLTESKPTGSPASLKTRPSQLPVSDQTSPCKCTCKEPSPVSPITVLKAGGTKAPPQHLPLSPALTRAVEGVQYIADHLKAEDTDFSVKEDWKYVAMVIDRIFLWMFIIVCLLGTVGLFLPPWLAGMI

As for “β2CFP nAChR subunit (from UniProt Q9ERK7 26-501) (receptor)”, the mean NFRET for all pixels in assay [1] was 0.2. For the same substance, in assay [2], the mean NFRET of first Gaussian component worked out at 0.19 and the mean NFRET of second Gaussian component turned out to be 0.28.

(Values after patent US20100209938A1.)
